{
  "source": "patent US20070117966A1",
  "target": "purified αvβ3 integrin (human) (UniProt P06756)",
  "assay": "competition ELISA on αvβ3 coated wells; competitor: biotinylated FNfn10-3JCLI4 at 800 pM; no inhibition at the highest concentration",
  "data": [
    {"substance": "wild-type FNfn10 (FNfn10-WT), purified protein (from UniProt P02751 1538-1631)", "values": [
      {"measurement": "IC50", "value": "> 0.08", "unit": "µM"}
    ]}
  ]
}
